Values quoted from earlier work in US11608532B2, “Precision medicine for treating and preventing suicidality” (Indiana University Research and Technology Corporation, priority 2017, dated 2023).
Like-named read-outs stand apart in the source and are kept apart here.

Test system: individual top biomarkers for suicidality

B1: certolizumab (antibody, chains of the INN, looked up, V domains shown)
VH: EVQLVESGGGLVQPGGSLRLSCAASGYVFTDYGMNWVRQAPGKGLEWMGWINTYIGEPIYADSVKGRFTFSLDTSKSTAYLQMNSLRAEDTAVYYCARGYRSYAMDYWGQGTLVTVSS
VL: DIQMTQSPSSLSASVGDRVTITCKASQNVGTNVAWYQQKPGKAPKALIYSASFLYSGVPYRFSGSGSGTDFTLTISSLQPEDFATYYCQQYNIYPLTFGQGTKVEIK
D. Top Biomarkers in Bipolar Disorder, direction of change in suicidality (I) DE/1, (I) AP/1
  TNF modulated by drug in opposite direction to suicide: certolizumab,

B2: siltuximab (antibody, chains of the INN, looked up, V domains shown)
VH: EVQLVESGGKLLKPGGSLKLSCAASGFTFSSFAMSWFRQSPEKRLEWVAEISSGGSYTYYPDTVTGRFTISRDNAKNTLYLEMSSLRSEDTAMYYCARGLWGYYALDYWGQGTSVTVSS
VL: QIVLIQSPAIMSASPGEKVTMTCSASSSVSYMYWYQQKPGSSPRLLIYDTSNLASGVPVRFSGSGSGTSYSLTISRMEAEDAATYYCQQWSGYPYTFGGGTKLEIK
B. Top Biomarkers in Males, direction of change in suicidality I, AP/2
  IL6 modulated by drug in opposite direction to suicide: siltuximab

B3: CAT-354 (antibody, chains of the INN, looked up, V domains shown)
VH: QVQLVQSGAEVKKPGASVKVSCKASGYTFTNYGLSWVRQAPGQGLEWMGWISANNGDTNYGQEFQGRVTMTTDTSTSTAYMELRSLRSDDTAVYYCARDSSSSWARWFFDLWGRGTLVTVSS
VL: SYVLTQPPSVSVAPGKTARITCGGNIIGSKLVHWYQQKPGQAPVLVIYDDGDRPSGIPERFSGSNSGNTATLTISRVEAGDEADYYCQVWDTGSDPVVFGGGTKLTVL
Biomarker IL13 (interleukin 13)
  Step 6 Drugs that Modulate the Biomarker in Opposite Direction to Suicide: CAT-354

B4: Siltuximab (antibody, chains of the INN, looked up, V domains shown)
VH: EVQLVESGGKLLKPGGSLKLSCAASGFTFSSFAMSWFRQSPEKRLEWVAEISSGGSYTYYPDTVTGRFTISRDNAKNTLYLEMSSLRSEDTAMYYCARGLWGYYALDYWGQGTSVTVSS
VL: QIVLIQSPAIMSASPGEKVTMTCSASSSVSYMYWYQQKPGSSPRLLIYDTSNLASGVPVRFSGSGSGTSYSLTISRMEAEDAATYYCQQWSGYPYTFGGGTKLEIK
Biomarker IL6 (interleukin 6)
  Step 6 Drugs that Modulate the Biomarker in Opposite Direction to Suicide: Siltuximab
